Experimental data published in patent US20050249730A1 (PIERRE FABRE MEDICAMENT, published 2005).

Target: T1, insulin receptor isoform A (IR-A) from lysates of R-/IR-A cells (UniProt P06213-2 28-1370)
T1 construct: Whole receptor in the lysate of R- fibroblasts stably transfected with IR-A cDNA
Assay: immunoprecipitation from R-/IR-A cell lysate, SDS-PAGE, immunoblot with anti-IR beta-subunit

T1 sequence (P06213 other isoform, or with tags, fused parts or gaps limits assumed): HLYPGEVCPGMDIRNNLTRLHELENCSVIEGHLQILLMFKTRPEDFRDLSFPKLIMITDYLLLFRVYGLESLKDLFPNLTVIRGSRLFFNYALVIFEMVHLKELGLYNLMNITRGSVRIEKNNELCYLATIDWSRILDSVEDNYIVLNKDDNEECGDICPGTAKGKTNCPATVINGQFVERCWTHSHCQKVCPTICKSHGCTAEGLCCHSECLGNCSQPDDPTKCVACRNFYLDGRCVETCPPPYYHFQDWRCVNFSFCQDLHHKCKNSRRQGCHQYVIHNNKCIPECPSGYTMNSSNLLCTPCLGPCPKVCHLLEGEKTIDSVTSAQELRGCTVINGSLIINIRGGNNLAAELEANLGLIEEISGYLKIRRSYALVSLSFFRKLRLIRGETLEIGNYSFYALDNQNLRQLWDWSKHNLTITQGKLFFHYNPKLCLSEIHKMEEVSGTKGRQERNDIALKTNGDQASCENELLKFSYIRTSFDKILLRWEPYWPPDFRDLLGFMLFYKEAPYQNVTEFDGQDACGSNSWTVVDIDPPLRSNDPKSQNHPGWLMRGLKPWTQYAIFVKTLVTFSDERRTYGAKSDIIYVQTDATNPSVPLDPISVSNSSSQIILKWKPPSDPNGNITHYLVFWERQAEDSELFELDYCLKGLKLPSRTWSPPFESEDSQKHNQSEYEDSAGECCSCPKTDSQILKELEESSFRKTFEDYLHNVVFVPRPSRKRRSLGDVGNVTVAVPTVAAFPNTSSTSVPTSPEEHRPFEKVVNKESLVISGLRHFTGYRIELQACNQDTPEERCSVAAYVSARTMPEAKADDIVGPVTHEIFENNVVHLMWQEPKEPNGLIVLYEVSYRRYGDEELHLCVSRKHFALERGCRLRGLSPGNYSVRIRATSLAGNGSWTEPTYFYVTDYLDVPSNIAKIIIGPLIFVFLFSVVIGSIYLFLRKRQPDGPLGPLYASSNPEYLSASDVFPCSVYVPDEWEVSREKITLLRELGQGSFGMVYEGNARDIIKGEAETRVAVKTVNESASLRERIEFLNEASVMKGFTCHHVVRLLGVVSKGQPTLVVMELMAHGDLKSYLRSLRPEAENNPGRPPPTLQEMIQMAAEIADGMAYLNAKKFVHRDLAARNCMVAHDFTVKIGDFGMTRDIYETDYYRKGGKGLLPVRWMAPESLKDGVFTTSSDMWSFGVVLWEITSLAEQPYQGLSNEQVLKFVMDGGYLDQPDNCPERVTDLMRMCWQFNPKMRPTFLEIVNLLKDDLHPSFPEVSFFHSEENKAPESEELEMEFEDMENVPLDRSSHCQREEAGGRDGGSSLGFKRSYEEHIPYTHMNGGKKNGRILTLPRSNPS

binding result: no binding
B1: humanized antibody h7C10 (humanized form 1 of 7C10: humanized 7C10 VH 1 with humanized 7C10 VL 1) (antibody, V domains shown)
VH: QVQLQESGPGLVKPSETLSLTCTVSGYSITGGYLWNWIRQPPGKGLEWMGYISYDGTNNYKPSLKDRITISRDTSKNQFSLKLSSVTAADTAVYYCARYGRVFFDYWGQGTLVTVSS
VL: DVVMTQSPLSLPVTPGEPASISCRSSQSIVHSNGNTYLQWYLQKPGQSPQLLIYKVSNRLYGVPDRFSGSGSGTDFTLKISRVEAEDVGVYYCFQGSHVPWTFGQGTKVEIK
notes: Human IgG1/kappa; also called 7H2HM; A2CHM
